Sequences and labels used below:
B1: SC34.90 (antibody, mouse IgG2a, V domains shown)
VH: QVQLQQSGAELMKPGASVKISCKATGYTFSYYWIEWVKQRPGHGLEWIGEILPGSDTTYYNEKFKGKATFTADTSSNTAYMQLSSLTSEDSAVYYCTIRRAAYYSNPEWFAYWGQGTLVTVSA
VL: QIVLTQSPAIMSASQGERVTMTCTASSSVSSSYLHWYQQKPGSSPKLWIYSTSNLASGVPVRFSGSGSGTSYSLTISSMEAEDAATYYCHQYHRSPYTFGGGTKLEIK
B2: SC34.28 mouse anti-DPEP3 antibody (antibody, V domains shown)
VH: B1 VH with Y31S, D56G, T57N, K63R, G66D, T97A, I98R, R100A
VL: B1 VL with Q15L, S30N, S32F, Y50H, V61G
notes: Mouse hybridoma antibody, the source of hSC34.28
B3: SC34.33 (antibody, mouse IgG1, V domains shown)
VH: B1 VH with Y31S, T57K, K63R, G66D, I98R, R100A
VL: B1 VL with Q15L, S30N, S32F, Y50H, V61G
B4: SC34.21 (antibody, mouse IgG1, V domains shown)
VH: EVQLQQSGPELVKPGTSMKISCKASGYSFTGYTMNWVKQSHGKNLEWIGLIYPYNDDTRYNRKFKGKATLTVDKSSNTAYMELLSLTSVDSAVCYCARGSYGSPFFDVWGAGTTVTVSS
VL: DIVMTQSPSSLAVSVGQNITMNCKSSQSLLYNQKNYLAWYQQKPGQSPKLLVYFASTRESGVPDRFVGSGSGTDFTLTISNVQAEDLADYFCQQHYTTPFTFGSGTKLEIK
B5: SC34.26 (antibody, mouse IgG2b, V domains shown)
VH: QVQLQQPGAELVKPGASVTLSCKASGYTFTSYYIYWVKQRPGEGLEWIGEINPSNGGPNFNERFKNKATLTVDKSSSTAYMQLSSLTSEDSAVYYCTRGLLYYDYDRGFAYWGQGTLVTVSA
VL: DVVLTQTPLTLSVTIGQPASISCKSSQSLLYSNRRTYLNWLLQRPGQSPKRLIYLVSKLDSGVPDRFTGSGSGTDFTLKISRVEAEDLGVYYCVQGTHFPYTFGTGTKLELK
B6: SC34.53 mouse anti-hDPEP3 antibody (antibody, V domains shown)
VH: B5 VH with N52D, E62D
VL: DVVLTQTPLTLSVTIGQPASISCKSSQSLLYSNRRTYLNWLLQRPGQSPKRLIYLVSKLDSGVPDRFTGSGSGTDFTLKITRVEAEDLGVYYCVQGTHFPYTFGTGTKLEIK
notes: Mouse hybridoma antibody
B7: SC34.38 (antibody, mouse IgG2b, V domains shown)
VH: B5 VH with I34M, P58A, Y94F
VL: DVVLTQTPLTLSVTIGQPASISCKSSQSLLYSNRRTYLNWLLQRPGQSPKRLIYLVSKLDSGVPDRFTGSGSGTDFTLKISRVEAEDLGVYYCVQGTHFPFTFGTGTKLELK
B8: SC34.40 (antibody, mouse IgG2a, V domains shown)
VH: EVQLQESGPGLAKPSQTLSLTCSVTGYSITSDYWNWIRKFPGNKLEYMGYITYSGSTYYNPSLKSRISITRDTSKNQYYLQLNSVTTEDTATYYCARARVYYYDGRYGRAMDYWGQGTSVTVSS
VL: DIQMTQSPASLSASVGETVTMTCRASENIYSNLAWYQQKQGKSPQVLVYAATNLADGVPSRFSGSESGTQFSLKINSLQPEDFGSYYCQHFYGTPWTFGGGTKLEIK
B9: SC34.41 (antibody, mouse IgG1, V domains shown)
VH: EVKLVESGGGLVKPGGSLKLSCAASGFTFTSYTMSWVRQTPAKRLEWVATISTGGGNTYYPDIVKGRFTISRDNARSTLYLQMSSLRSEDSAMYYCARRFYDGSYNYWYFDVWGAGTTVTVSS
VL: DIQMIQSPSSMFASLGDRVSLSCRASQGIRGNLDWYQQKPGGTIKLLIYSTSNLNSGVPSRFSGSGSGSDYSLTISSLESEDFADYYCLQRDAYPYTFGGGTKLEIK
B10: SC34.18 (antibody, mouse IgG2b, V domains shown)
VH: QVSLKESGPGILQPSQTLSLTCSFSGFSLSTSGMGVGWIRQPSGKGLEWLANIWWDDSIYYNTALKSRLTISKDTSKNQVFLKIASVDTADTATYSCARIESYYGNRAWFAYWGQGTLVTVSA
VL: DIVMTQSQKFMSTSVGDRVSITCKASQNVRTAVGWYQQKPGQSPKTLIYLASNRHTGVSDRFTGSGSGTDFTLTISNVQSEDLADYFCLQHWNYPWTFGGGTKLEIK

Substitutions are numbered along the chain they refer to. Several values for one entry are separate records, joined by “and”; a condition that tells them apart may be missing. Equal entries are not always repeated. Where only a bound is given, the exact number is not on record here.

For the first assay, the target named is T1, cDPEP3 (Macaca fascicularis, UniProt Q4R7M2).
T1 construct: extracellular domain; also called cynomolgus DPEP3-His; cynomolgus DPEP3 ECD with histidine tag
T1 sequence (single chain, looked up): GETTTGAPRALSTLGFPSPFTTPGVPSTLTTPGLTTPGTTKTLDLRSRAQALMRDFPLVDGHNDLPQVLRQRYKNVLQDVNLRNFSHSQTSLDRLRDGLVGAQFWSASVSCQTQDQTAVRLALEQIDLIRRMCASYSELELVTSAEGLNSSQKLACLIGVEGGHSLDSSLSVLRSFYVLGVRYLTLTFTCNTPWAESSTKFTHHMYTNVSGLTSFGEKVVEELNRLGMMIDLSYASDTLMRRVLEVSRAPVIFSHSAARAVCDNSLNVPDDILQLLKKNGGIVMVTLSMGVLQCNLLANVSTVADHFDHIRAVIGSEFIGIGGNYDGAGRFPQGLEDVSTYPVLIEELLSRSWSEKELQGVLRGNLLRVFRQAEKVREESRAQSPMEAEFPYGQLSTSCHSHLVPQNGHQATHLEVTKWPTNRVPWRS
In words: ELISA, coated antigen.
As for B1, the binding result is “no binding (tested: 1 ug/mL)”.
For the molecule B2, the binding result is listed as “no binding (tested: 1 ug/mL)”.
Still for that read-out and setting: for B3 the value was “no binding (tested: 1 ug/mL)”; for B4, “no binding (tested: 1 ug/mL)”; for B5, “no binding (tested: 1 ug/mL)”.
Same read-out and setting: for B6 the value was “no binding (tested: 1 ug/mL)”.
Same read-out and setting: under B7 stands “no binding (tested: 1 ug/mL)”; under B8, “no binding (tested: 1 ug/mL)”.
With B9, the binding result is “no binding (tested: 1 ug/mL)”.
Same read-out and setting: for B10 the value was “no binding (tested: 1 ug/mL)”.

A further assay concerns the target T2, mDPEP3 (limits assumed).
T2 construct: also called mouse DPEP3-His; mouse DPEP3 ECD with histidine tag
T2 single chain: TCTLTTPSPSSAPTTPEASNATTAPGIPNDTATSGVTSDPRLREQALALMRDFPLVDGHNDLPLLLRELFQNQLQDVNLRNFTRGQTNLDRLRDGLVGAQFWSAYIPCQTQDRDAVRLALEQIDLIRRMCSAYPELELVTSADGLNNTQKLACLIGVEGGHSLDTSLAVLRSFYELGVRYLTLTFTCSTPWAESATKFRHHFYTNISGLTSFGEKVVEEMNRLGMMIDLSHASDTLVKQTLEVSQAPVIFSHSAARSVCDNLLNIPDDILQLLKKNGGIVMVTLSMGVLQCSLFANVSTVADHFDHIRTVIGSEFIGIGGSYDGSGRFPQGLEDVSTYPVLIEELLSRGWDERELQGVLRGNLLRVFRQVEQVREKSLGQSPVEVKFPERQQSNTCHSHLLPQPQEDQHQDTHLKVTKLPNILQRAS
As to the kind of experiment: ELISA, coated antigen.
As to B1, the binding result is given as “no binding (tested: 1 ug/mL)”.
The same measure, in the same setting: under B2 stands “no binding (tested: 1 ug/mL)”; under B3, “no binding (tested: 1 ug/mL)”; under B4, “no binding (tested: 1 ug/mL)”.
On the same count and under the same terms, under B5 stands “no binding (tested: 1 ug/mL)”; under B6, “no binding (tested: 1 ug/mL)”.
On the same count and under the same terms, under B7 stands “no binding (tested: 1 ug/mL)”; under B8, “no binding (tested: 1 ug/mL)”.
On to B9, for which the binding result is given as “no binding (tested: 1 ug/mL)”.
On the same count and under the same terms, under B10 stands “no binding (tested: 1 ug/mL)”.

The target of the next assay is T3, rat DPEP3 ECD with histidine tag (rat, UniProt Q5U2X4 36-459, limits assumed).
T3 construct: also called rDPEP3-His; ratDPEP3-His; not shown: histidine tag
T3 sequence: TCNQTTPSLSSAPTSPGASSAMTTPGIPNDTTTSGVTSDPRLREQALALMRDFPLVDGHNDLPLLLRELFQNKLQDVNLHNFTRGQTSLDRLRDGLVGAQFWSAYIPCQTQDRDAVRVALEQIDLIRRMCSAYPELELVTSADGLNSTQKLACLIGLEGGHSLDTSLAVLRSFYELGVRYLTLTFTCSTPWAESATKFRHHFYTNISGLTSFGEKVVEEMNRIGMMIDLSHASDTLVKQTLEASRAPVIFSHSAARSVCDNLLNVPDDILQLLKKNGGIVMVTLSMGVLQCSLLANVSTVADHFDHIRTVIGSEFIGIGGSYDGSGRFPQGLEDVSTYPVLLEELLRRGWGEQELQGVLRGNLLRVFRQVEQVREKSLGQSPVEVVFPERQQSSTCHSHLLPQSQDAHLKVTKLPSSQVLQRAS
In words: ELISA, coated antigen. A general note: In an ELISA, binding on a coated surface is turned into a signal by an enzyme label.
Take B1: the binding result is “no binding (tested: 1 ug/mL)”.
Still for that read-out and setting: under B2 stands “no binding (tested: 1 ug/mL)”.
Same read-out and setting: for B3 the value was “no binding (tested: 1 ug/mL)”; for B4, “no binding (tested: 1 ug/mL)”.
On the same count and under the same terms, under B5 stands “no binding (tested: 1 ug/mL)”.
With B6, the binding result was “no binding (tested: 1 ug/mL)”.
B7: the binding result is “no binding (tested: 1 ug/mL)”.
The same measure, in the same setting: under B8 stands “no binding (tested: 1 ug/mL)”; under B9, “no binding (tested: 1 ug/mL)”.
Same read-out and setting: for B10 the value was “no binding (tested: 1 ug/mL)”.

The target of a further assay is T4, hDPEP2 ECD with histidine tag (human, UniProt Q9H4A9 33-463).
T4 construct: also called hDPEP2-His; not shown: histidine tag
T4 sequence (Q9H4A9 33-463): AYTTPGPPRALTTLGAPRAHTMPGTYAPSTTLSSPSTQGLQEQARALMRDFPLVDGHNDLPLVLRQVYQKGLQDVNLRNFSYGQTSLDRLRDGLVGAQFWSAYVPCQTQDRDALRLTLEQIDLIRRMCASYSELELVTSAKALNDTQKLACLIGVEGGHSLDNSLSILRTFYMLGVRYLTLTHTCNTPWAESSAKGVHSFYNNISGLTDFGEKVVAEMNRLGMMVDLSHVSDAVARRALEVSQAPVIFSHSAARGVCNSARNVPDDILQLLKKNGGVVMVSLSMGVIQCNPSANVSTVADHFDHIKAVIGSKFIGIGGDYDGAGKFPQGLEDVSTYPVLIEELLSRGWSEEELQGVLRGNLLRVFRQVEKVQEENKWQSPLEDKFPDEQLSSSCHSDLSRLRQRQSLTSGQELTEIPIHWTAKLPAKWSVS
In words: ELISA, coated antigen.
B1: the binding result is on record as “no binding (tested: 1 ug/mL)”.
As for B2, the binding result is on record as “no binding (tested: 1 ug/mL)”.
Still for that read-out and setting: for B3 the value was “no binding (tested: 1 ug/mL)”; for B4, “no binding (tested: 1 ug/mL)”.
Same read-out and setting: for B5 the value was “no binding (tested: 1 ug/mL)”; for B6, “no binding (tested: 1 ug/mL)”; for B7, “no binding (tested: 1 ug/mL)”.
As for B8, the binding result was “no binding (tested: 1 ug/mL)”.
With B9, the binding result is “no binding (tested: 1 ug/mL)”.
Still for that read-out and setting: under B10 stands “no binding (tested: 1 ug/mL)”.

Another assay concerns the target T5, hDPEP3-ECD-His (human, UniProt Q9H4B8 36-463).
T5 construct: also called hDPEP3-His; monomeric hDPEP3-His antigen; not shown: histidine tag
T5 sequence: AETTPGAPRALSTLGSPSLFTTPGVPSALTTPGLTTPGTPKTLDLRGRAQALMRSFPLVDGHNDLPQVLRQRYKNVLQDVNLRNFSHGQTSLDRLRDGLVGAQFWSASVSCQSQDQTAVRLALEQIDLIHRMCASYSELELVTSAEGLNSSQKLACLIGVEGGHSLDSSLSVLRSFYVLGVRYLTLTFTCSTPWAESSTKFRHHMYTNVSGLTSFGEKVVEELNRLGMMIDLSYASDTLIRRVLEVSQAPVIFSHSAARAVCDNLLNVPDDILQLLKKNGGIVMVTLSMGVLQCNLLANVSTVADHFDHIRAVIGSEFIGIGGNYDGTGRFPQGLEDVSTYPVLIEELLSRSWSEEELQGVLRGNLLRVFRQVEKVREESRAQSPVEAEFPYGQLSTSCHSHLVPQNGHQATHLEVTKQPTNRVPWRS
In words: BLI ForteBio RED, 200 nM hDPEP3-His, estimated grade. Summed up:
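Antibodies were captured on anti-mouse Fc biosensors to 0.3-1 units, then exposed to hDPEP3-His for a 4 min association and a 3 min dissociation at 1000 rpm. A control mouse IgG response was subtracted, and KD was estimated qualitatively from the curves. Sensors were regenerated with 10 mM glycine, pH 1.7.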
As for B1, the equilibrium dissociation constant (Kd) – broadly, a measure of binding affinity in units of concentration – is ≥ 5 nM and ≤ 10 nM.
The same measure, in the same setting: under B2 stands ≥ 5 nM and ≤ 10 nM.
In the case of B3, the Kd was ≥ 5 nM and ≤ 10 nM.
Same read-out and setting: for B4 the value was less than 5 nM; for B5, more than 10 nM.
Same read-out and setting: under B6 stands ≥ 5 nM and ≤ 10 nM.
Turning to B7, the Kd is less than 5 nM.
As for B8, the Kd is ≥ 5 nM and ≤ 10 nM.
For the molecule B9, the Kd is more than 10 nM.
Still for that read-out and setting: for B10 the value was less than 5 nM.
